“And” between values parts separate entries of the source, which are not always exact repeats. Equal entries are not always repeated.
Biological target: the molecule itself
Assay: SEC; lysates of control and 2-BP-treated primary hippocampal neurons; fifteen fractions immunoblotted for gephyrin and PSD-95; reference proteins for size

B1: gephyrin, endogenous in primary hippocampal neurons (natural protein, UniProt Q8BUV3 1-769, looked up)
chain: MATEGMILTNHDHQIRVGVLTVSDSCFRNLAEDRSGINLKDLVQDPSLLGGTISAYKIVPDEIEEIKETLIDWCDEKELNLILTTGGTGFAPRDVTPEATKEVIEREAPGMALAMLMGSLNVTPLGMLSRPVCGIRGKTLIINLPGSKKGSQECFQFILPALPHAIDLLRDAIVKVKEVHDELEDLPSPPPPLSPPPTTSPHKQTEDKGVQCEEEEEEKKDSGVASTEDSSSSHITAAALAAKIPDSIISRGVQVLPRDTASLSTTPSESPRAQATSRLSTASCPTPKQIRRPDESKGVASRVGSLKARLPSCSSTYSVSEVQSRCSSKENILRASHSAVDITKVARRHRMSPFPLTSMDKAFITVLEMTPVLGTEIINYRDGMGRVLAQDVYAKDNLPPFPASVKDGYAVRAADGPGDRFIIGESQAGEQPTQTVMPGQVMRVTTGAPIPCGADAVVQVEDTELIRESDDGTEELEVRILVQARPGQDIRPIGHDIKRGECVLAKGTHMGPSEIGLLATVGVTEVEVNKFPVVAVMSTGNELLNPEDDLLPGKIRDSNRSTLLATIQEHGYPTINLGIVGDNPDDLLNALNEGISRADVIITSGGVSMGEKDYLKQVLDIDLHAQIHFGRVFMKPGLPTTFATLDIDGVRKIIFALPGNPVSAVVTCNLFVVPALRKMQGILDPRPTIIKARLSCDVKLDPRPEYHRCILTWHHQEPLPWAQSTGNQMSSRLMSMRSANGLLMLPPKTEQYVELHKGEVVDVMVIGRL
notes: gephyrin, endogenous; A fraction of it is palmitoylated on Cys212 and Cys284 (7.5% in mouse brain); also called native neuronal gephyrin; gephyrin (83 kDa); source: endogenous, lysates of primary hippocampal neurons (control and 2-BP-treated)
- stoichiometry N: 6 and 9

— PMC4099074, “Palmitoylation of Gephyrin Controls Receptor Clustering and Plasticity of GABAergic Synapses” (PLoS Biology, 2014)
